The source of these data is the Immune Epitope Database (IEDB).

Where only a bound is given, the exact number is not on record here.

Targets include HLA-A*31:01; HLA-A*03:01; HLA-A*11:01; HLA-A*33:01; HLA-A*68:01.
What all share (experiment): IEDB peptide-MHC binding, purified MHC/competitive/radioactivity; filed as Kd, often an IC50 or EC50 that approximates it; ≥ and ≤ were set here for values at or beyond the usual limits of such assays
[1] abbreviates: source organism: Dengue virus 1 Brazil/97-11/1997.
Setting [2] is: source organism: Vaccinia virus WR.
[3] abbreviates: source organism: Dengue virus 4 Philippines/H241/1956.
[4] abbreviates: source organism: Mammarenavirus guanaritoense.
[5] abbreviates: source organism: Dengue virus 2 Jamaica/1409/1983.
Setting [6] is: source organism: Dengue virus 3 Martinique/1243/1999.
Setting [7] is: source organism: Mammarenavirus brazilense.
[8] abbreviates: source organism: Lassa virus Josiah.
Where [9] appears, read: source organism: SARS coronavirus Tor2.
[10] abbreviates: source organism: Dengue virus 2 Peru/IQT2913/1996.
The mark [11] stands for this setting: source organism: Dengue virus 3 Sri Lanka/1266/2000.

Take LMKSLGGGR: the Kd with HLA-A*31:01 (setting [1]) was no less than 57600 nM.

As for KSSSIDVDK, the Kd with HLA-A*03:01 (setting [2]) was 14200 nM; in the assay with HLA-A*11:01 (setting [2]), 161 nM; with HLA-A*31:01 (setting [2]), 17700 nM; with HLA-A*33:01 (setting [2]), no less than 77700 nM; in the assay with HLA-A*68:01 (setting [2]), 8590 nM.

GAVVKSDNK: the Kd was 15400 nM in the assay with HLA-A*03:01 (setting [2]); 782 nM with HLA-A*11:01 (setting [2]); no less than 77900 nM with HLA-A*31:01 (setting [2]); no less than 77700 nM with HLA-A*33:01 (setting [2]); 12500 nM with HLA-A*68:01 (setting [2]).

As for GTGLWTHDK, the Kd with HLA-A*03:01 (setting [2]) was 24.7 nM; in the assay with HLA-A*11:01 (setting [2]) it was 0.361 nM; in the assay with HLA-A*31:01 (setting [2]), 805 nM; with HLA-A*33:01 (setting [2]), no less than 65600 nM; with HLA-A*68:01 (setting [2]) it was 156 nM.

Turning to TSEVHWNYK, in the assay with HLA-A*11:01 (setting [3]), the Kd was found to be 84.9 nM.

Regarding IIGPMFSGK, the Kd turned out to be 0.73 nM with HLA-A*03:01 (setting [2]); 1.79 nM with HLA-A*11:01 (setting [2]); 6320 nM with HLA-A*31:01 (setting [2]); 7360 nM in the assay with HLA-A*33:01 (setting [2]); 100 nM with HLA-A*68:01 (setting [2]).

Regarding EFIRIIRPDY, the Kd with HLA-A*03:01 (setting [2]) is no less than 21400 nM; with HLA-A*11:01 (setting [2]) it was no less than 69800 nM; in the assay with HLA-A*31:01 (setting [2]), 13700 nM; with HLA-A*33:01 (setting [2]) it was 934 nM; with HLA-A*68:01 (setting [2]), 12200 nM.

As to SVQLSNNKY, the Kd was 2710 nM in the assay with HLA-A*03:01 (setting [2]); 33.1 nM with HLA-A*11:01 (setting [2]); 17500 nM in the assay with HLA-A*31:01 (setting [2]); 13600 nM with HLA-A*33:01 (setting [2]); 1250 nM in the assay with HLA-A*68:01 (setting [2]).

For SYSKMSVVMR, the Kd with HLA-A*03:01 (setting [4]) is 9970 nM; in the assay with HLA-A*11:01 (setting [4]) it was no less than 21700 nM; with HLA-A*31:01 (setting [4]), 5.69 nM; with HLA-A*33:01 (setting [4]), 55.9 nM; in the assay with HLA-A*68:01 (setting [4]), 132 nM.

With ILKRWGTIKK, in the assay with HLA-A*03:01 (setting [5]), the equilibrium dissociation constant (Kd) was 47.4 nM.

SIFAGHLKCR: in the assay with HLA-A*33:01 (setting [6]), the Kd is 116 nM.

On to VIDPRRCLK, for which the values for the Kd with HLA-A*03:01 (setting [1]) and with HLA-A*11:01 (setting [1]) were 49.3 nM and 1500 nM, respectively.

On to LLMHLVSLYK, for which the Kd came out at 1.22 nM with HLA-A*03:01 (setting [2]); 0.379 nM with HLA-A*11:01 (setting [2]); 85.1 nM with HLA-A*31:01 (setting [2]); 15800 nM with HLA-A*33:01 (setting [2]); 17.5 nM in the assay with HLA-A*68:01 (setting [2]).

For FTFGDTALY, the Kd was 612 nM with HLA-A*03:01 (setting [2]); 192 nM in the assay with HLA-A*11:01 (setting [2]); 14300 nM in the assay with HLA-A*31:01 (setting [2]); no less than 50000 nM with HLA-A*33:01 (setting [2]); 2.27 nM in the assay with HLA-A*68:01 (setting [2]).

On to LFMEMFFDY, for which the Kd with HLA-A*03:01 (setting [2]) is no less than 37600 nM; with HLA-A*11:01 (setting [2]) it was no less than 59500 nM; with HLA-A*31:01 (setting [2]), 13000 nM; in the assay with HLA-A*33:01 (setting [2]) it was no less than 56100 nM; with HLA-A*68:01 (setting [2]) it was no less than 70200 nM.

Consider AANEMGLIEK, for which the Kd with HLA-A*11:01 (setting [3]) is 281 nM.

Take DFTLFIKTGH: the Kd in the assay with HLA-A*11:01 (setting [7]) was no less than 58700 nM; with HLA-A*31:01 (setting [7]), 4540 nM; with HLA-A*33:01 (setting [7]), 131 nM; with HLA-A*68:01 (setting [7]), 2480 nM.

Regarding NFITKEIKNR, the Kd with HLA-A*03:01 (setting [2]) was no less than 70100 nM; with HLA-A*11:01 (setting [2]), no less than 69800 nM; in the assay with HLA-A*31:01 (setting [2]) it was 1070 nM; in the assay with HLA-A*33:01 (setting [2]), 168 nM; in the assay with HLA-A*68:01 (setting [2]), 526 nM.

For the sequence FCKSCWFENK, the Kd in the assay with HLA-A*03:01 (setting [8]) was no less than 20000 nM; with HLA-A*31:01 (setting [8]), 2430 nM; in the assay with HLA-A*33:01 (setting [8]) it was 9190 nM.

For MIEEVMRSR, the Kd with HLA-A*33:01 (setting [1]) stood at 90.8 nM.

With LISYGGGWK, the Kd with HLA-A*03:01 (setting [5]) amounted to 338 nM.

Consider VLHDIGNPK, for which the Kd was found to be 21.5 nM with HLA-A*03:01 (setting [9]); 34.3 nM in the assay with HLA-A*11:01 (setting [9]); 1960 nM in the assay with HLA-A*31:01 (setting [9]); 7770 nM in the assay with HLA-A*33:01 (setting [9]); 6520 nM with HLA-A*68:01 (setting [9]).

Turning to ITANPVVTK, the Kd in the assay with HLA-A*03:01 (setting [6]) is 18.1 nM; with HLA-A*11:01 (setting [6]), 22.3 nM; in the assay with HLA-A*68:01 (setting [6]), 47.9 nM.

VMAFHLTTR: the results for the Kd with HLA-A*03:01 (setting [10]) and with HLA-A*31:01 (setting [10]) were 51.7 nM and 7.39 nM, respectively.

DMISYGGGWR: in the assay with HLA-A*33:01 (setting [3]), the Kd stood at 506 nM.

With IFLFLMSGR, the Kd stood at 59.9 nM with HLA-A*31:01 (setting [10]) and 10 nM with HLA-A*33:01 (setting [10]).

For LLALNDMGK, in the assay with HLA-A*03:01 (setting [6]), the Kd worked out at 294 nM.

On to IGKMFEATAR, for which the Kd with HLA-A*33:01 (setting [1]) came to 637 nM.

On to LFMALVAFLR, for which the Kd with HLA-A*31:01 (setting [5]) amounted to 95.5 nM; in the assay with HLA-A*33:01 (setting [5]) it was 93.2 nM; with HLA-A*68:01 (setting [5]) it was 192 nM.

In the case of DSVCACGLFK, the Kd with HLA-A*11:01 (source organism: Mammarenavirus whitewaterense) stood at 133 nM.

Consider FNMLKRERNR, for which, in the assay with HLA-A*33:01 (setting [5]), the Kd was 53.7 nM.

Regarding FLALGFFLR, the Kd in the assay with HLA-A*31:01 (setting [6]) was 43 nM; in the assay with HLA-A*33:01 (setting [6]), 26.5 nM; with HLA-A*68:01 (setting [6]), 2.14 nM.

Turning to MVSRLLLNR, the Kd with HLA-A*11:01 (setting [6]) stood at 49.9 nM; with HLA-A*31:01 (setting [6]) it was 4.81 nM; with HLA-A*33:01 (setting [6]) it was 8.31 nM; in the assay with HLA-A*68:01 (setting [6]) it was 13 nM.

Turning to TIFTLTVAWR, the results for the Kd in the assay with HLA-A*31:01 (setting [11]), with HLA-A*33:01 (setting [11]) and with HLA-A*68:01 (setting [11]) were 395 nM, 391 nM and 87.3 nM, respectively.

Turning to IVMLHTTER, the Kd with HLA-A*31:01 (setting [3]) was 2.36 nM; with HLA-A*33:01 (setting [3]) it was 13.9 nM; with HLA-A*68:01 (setting [3]), 19.7 nM.

In the case of VTNHMEGEHK, the Kd with HLA-A*11:01 (setting [5]) was found to be 508 nM.

Turning to AMLFLISGK, the Kd in the assay with HLA-A*03:01 (setting [6]) came out at 185 nM; in the assay with HLA-A*11:01 (setting [6]) it was 211 nM.

With ILARWSSFKK, the Kd with HLA-A*03:01 (setting [1]) was found to be 1.39 nM.

With KLGEFGRAK, the Kd in the assay with HLA-A*03:01 (setting [3]) came out at 1.75 nM.
